Target: the molecule itself
Experiment: native gel or EMSA

B1: FLAG-Pex14p(156–376)SD (domain or fragment, rat, UniProt Q642G4 156-376, looked up)
chain: SGSVAQTVTQVQTTLASVQELLRQQQQKVQELAHELAAAKATTSTNWILESQNINELKSEINSLKGLLLNRRQFPPDPSAPKIPSWQIPVKSPSPSSPAAVNHHSSSDISPVSNESPSSSPGKDGHSPEGSTATYRLLGPQEEGEGVVDVKGQVRMEVQGEEEKREDEEGEEDEDDDVSHVDEEDVLGVQREDRRGGDGQINEQVEKLRRPEGASNESERD
fold formation of homo-oligomer against WT or SA mutant: ~1.5 fold

From PMC7659713 (The Journal of Cell Biology, 2020)
